Test results taken from patent US20230391852A1 (US Dept. of Health and Human Services, published 2023).

molecular target: SARS-CoV-2 S protein trimer expressed on human A431 cells (SARS-CoV-2, UniProt P0DTC2 14-1273); assay: flow cytometry on A431 cells expressing SARS-CoV-2 S (A431-CoV-2-S)

| Binder | percent of cells right of the dashed gate line [%] |
| --- | --- |
| 1B5 VHH-hFc (Fc fusion, also called 1B5-hFc; NCI-CoV-1B5 VHH-hFc fusion protein) DVQLVESGGGSVQAGGSLRLSCTGSRYTYSTYCMGWFRQAPGKEEEAVAIINSGGGEPYYGDSVKGRFTISQDRAKNTVYLQMDGLQPDDTAIYYCVAADSHNSRCYLGRSYVNYWGQGTQVTVSS | 99.1 |
| 8A2 VHH-hFc (Fc fusion, also called NCI-CoV-8A2 VHH-hFc) AVQLVDSGGGSVQAGGSLRLSCAASGYTYSICTMGWYRQAPGEGLEWVSGINADGSNTHYTDSVKGRFTISRDNAKKTLYLQMNSLKPEDTAIYYCAAHGTYDKYAPCGGFAGTYTYWGQGTQVTVSS | 98.7 |
| 1H6 VHH-hFc (Fc fusion, also called 1H6-hFc; NCI-CoV-1H6 VHH-hFc fusion protein) AVQLVDSGGGSVQAGGSLNLSCVASGTTLRNGCMAWFRQVPGKEREVVAIIIRATSYTDYADSVKGRFTISQDNAKNTVYLQMKSLTPEDTATYYCAATLYRVNCAKREFDKWGQGTQVTVSS | 99.5 |
| 2F7 VHH-hFc (Fc fusion, also called 2F7-hFc; NCI-CoV-2F7 VHH-hFc fusion protein) QVKLEESGGGSVQSGGSLRLSCTVSRDTNTNINRCMGWFRQAPGKGLETVATINRDGTNTYYTDAVKGRFTISQDNVKNTVYLQMNNLTPEDTGTYICNAMGRGSGSRCDNWDPNYWGQGTQVTVSS | 99.3 |
| 7A3 VHH-hFc (Fc fusion, also called 7A3-hFc; NCI-CoV-7A3 VHH-hFc fusion protein) QVQLVESGGGSVQPGGSLRLSCVVSGYTSSSRYMGWFRQVPGKGLEWVSGIKRDGTNTYYADSVKGRFTISQDNAKNTVYLQMNSLKPEDTAMYYCAAGSWYNQWGYSMDYWGKGTQVTVSS | 99.5 |
| 8A4 VHH-hFc (Fc fusion, also called 8A4-hFc; NCI-CoV-8A4 VHH-hFc fusion protein) EVQLVESGGGLVQPGESLRLSCEASGFTFSSVYMSWVRQAPGKGLEWISTIHPAGGSTYYADSMKDRFTISRDNAKNTLYLQMNSLKSEDTALYYCIIEALSGYRGPGTQVTVSS | 99.4 |
